Measured values: article PMC6921899, “AtDAT1 Is a Key Enzyme of D-Amino Acid Stimulated Ethylene Production in Arabidopsis thaliana” (Frontiers in Plant Science, 2019)

Substrate: CSCC[C@@H](N)C(=O)O
Assay: D-Ala formation by UPLC-MS after derivatization; Hofstee linearization
Type: biochemical, Arabidopsis thaliana
Conditions: pyruvate 50 mM as amino acceptor, standard assay: potassium phosphate 100 mM pH 8, PLP 50 µM, 37 °C

B1: AtDAT1(Col-0) (Arabidopsis thaliana) (protein)
chain: MAGLSLEFTVNTWNLRSLSQVPCPLRHGFRFPRRLTRRRTILMCSDSSSQSWNVPVLSSYEVGERLKLARGGQQFLAMYSSVVDGITTDPAAMVLPLDDHMVHRGHGVFDTALIINGYLYELDQHLDRILRSASMAKIPLPFDRETIKRILIQTVSVSGCRDGSLRYWLSAGPGDFLLSPSQCLKPTLYAIVIKTNFAINPIGVKVVTSSIPIKPPEFATVKSVNYLPNVLSQMEAEAKGAYAGIWVCKDGFIAEGPNMNVAFVVNGGKELVMPRFDNVLSGCTAKRTLTLAEQLVSKGILKTVKVMDVTVEDGKKADEMMLIGSGIPIRPVIQWDEEFIGEGKEGPIAKALLDLLLEDMRSGPPSVRVLVPY
notes: N-terminal GST tag and C-terminal His tag (pGEX-2TM-GW); E. coli BL21(DE3) RIL; Ni-NTA purified
Km: 17.4 mM
